Reference: patent publication US7893197B2, “Relaxin-3 chimeric polypeptides and their preparation and use” (Janssen Pharmaceutica N.V., priority 2005, dated 2011)

Columns and labels:
[1] = molecular target: T1, LGR8 (Homo sapiens, UniProt Q8WXD0); assay: Stimulation of β-galactosidase expression in SK-N-MC/β-gal cells; type: cell-based; conditions: highest concentration tested 1 μM
T1 construct: Human LGR8 cDNA containing the complete coding region was PCR amplified; expressed in transfected cells
Experimental: FIGS. 1A-1D show the activation of GPCR135 and GPCR142 by relaxin-3 B-chain, but not of LGR7 or LGR8. In FIG. 1A, SK-N-MC/β-gal cells expressing human GPCR135 were stimulated with relaxin-3, relaxin-3 B-chain, porcine relaxin, or INSL3 at various concentrations to inhibit the forskolin stimulated β-galactosidase expression. Forskolin was added to cells at a final concentration of 5 μM to stimulate the β-galactosidase expression. FIG. 1B depicts results for SK-N-MC/β-gal cells expressing human GPCR142 stimulated as in FIG. 1A. In FIG. 1C, SK-N-MC/β-gal cells expressing human LGR7 were stimulated with relaxin-3, relaxin-3 B-chain, porcine relaxin, and INSL3 at various concentrations to induce the β-galactosidase expression. The intracellular β-galactosidase activities were measured by a colorimetric assay using CRGP as the substrate and reading the absorbance at a wavelength of 570 nm. For FIG. 1D, SK-N-MC/β-gal cells expressing human LGR8 were stimulated as in FIG. 1C.
FIGS. 4A-4D illustrate the evaluation of the agonist activity of relaxin-3 chimeric polypeptides in biofunctional assays. Different chimeric polypeptides at various concentrations were added to SK-N-MC/β-gal cells expressing human GPCR135 (FIG. 4A) or GPCR142 (FIG. 4B) to inhibit forskolin stimulated β-galactosidase expression. Human relaxin-3 was used as the positive control. In parallel, chimeric polypeptides at various concentrations were added to SK-N-MC/β-gal cells expressing human LGR7 (FIG. 4C) and LGR8 (FIG. 4D) to stimulate β-galactosidase expression. Relaxin-3 and INSL3 were used as positive controls for LGR7 and LGR8, respectively. Intracellular β-galactosidase activity was measured by a colorimetric assay using CRGP as the substrate and reading the absorbance at wavelength of 570 nm. Data represent mean±SEM (n=3).
It has been shown that synthetic human relaxin-3 B-chain alone, but not A-chain, is an agonist for both GPCR135 and GPCR142 (Liu et al., 2003, Journal of Biological Chemistry, 278:50754-50764 and Liu et al., 2003, Journal of Biological Chemistry, 278:50765-50770). Those studies were repeated herein in SK-N-MC/β-gal cells, which harbor a β-galactosidase gene under the control of a cAMP responsive element (CRE) (Liu et al., 2001, Molecular Pharmacology, 59:420-426). In such SK-N-MC/β-gal cells, an increase in intracellular cAMP concentration leads to increased β-galactosidase gene expression, the activity of which is measured using Chlorophenol Red-β-D-Galactopyranoside (CPRG) as the substrate.
The inventive chimeric polypeptides were each independently tested for their ability to activate either GPCR135, GPCR142, LGR7, or LGR8, respectively, in separate pools of SK-N-MC/β-gal cells (see supra), each pool stably expressing one of the respective receptors, as indicated (FIG. 4).
Cells were seeded in 96-well tissue culture plate at a density of 30,000 cells/well in MEM plus 10% fetal serum, sodium pyruvate, penicillin, streptomycin, and G418 (400 mg/L). For cells expressing GPCR135 or GPCR142, forskolin was added to cells at a final concentration of 5 μM to stimulate intracellular cAMP accumulation. Different concentrations of each of the inventive polypeptides were then added to the cells to inhibit the forskolin induced cAMP accumulation. For cells expressing LGR7 or LGR8, intracellular cAMP was stimulated with each of the inventive chimeric polypeptides at various concentrations.
For all cells, after adding the chimeric polypeptides, cells were incubated for 6 additional hours in 37° C. incubator. The media was then aspirated and the β-galactosidase activities measured as previously described (Liu et al., 2001, Molecular Pharmacology, 59:420-426). The results were analyzed by Prism 3.0 software. […]

[2] = molecular target: T2, LGR7 (Homo sapiens, UniProt Q9HBX9); assay: Radioligand competition binding, [125I]-relaxin-3, live transfected COS-7 cells
T2 construct: Human LGR7 cDNA containing the complete coding region was PCR amplified; expressed in transfected cells
T2 sequence (Q9HBX9 1-757): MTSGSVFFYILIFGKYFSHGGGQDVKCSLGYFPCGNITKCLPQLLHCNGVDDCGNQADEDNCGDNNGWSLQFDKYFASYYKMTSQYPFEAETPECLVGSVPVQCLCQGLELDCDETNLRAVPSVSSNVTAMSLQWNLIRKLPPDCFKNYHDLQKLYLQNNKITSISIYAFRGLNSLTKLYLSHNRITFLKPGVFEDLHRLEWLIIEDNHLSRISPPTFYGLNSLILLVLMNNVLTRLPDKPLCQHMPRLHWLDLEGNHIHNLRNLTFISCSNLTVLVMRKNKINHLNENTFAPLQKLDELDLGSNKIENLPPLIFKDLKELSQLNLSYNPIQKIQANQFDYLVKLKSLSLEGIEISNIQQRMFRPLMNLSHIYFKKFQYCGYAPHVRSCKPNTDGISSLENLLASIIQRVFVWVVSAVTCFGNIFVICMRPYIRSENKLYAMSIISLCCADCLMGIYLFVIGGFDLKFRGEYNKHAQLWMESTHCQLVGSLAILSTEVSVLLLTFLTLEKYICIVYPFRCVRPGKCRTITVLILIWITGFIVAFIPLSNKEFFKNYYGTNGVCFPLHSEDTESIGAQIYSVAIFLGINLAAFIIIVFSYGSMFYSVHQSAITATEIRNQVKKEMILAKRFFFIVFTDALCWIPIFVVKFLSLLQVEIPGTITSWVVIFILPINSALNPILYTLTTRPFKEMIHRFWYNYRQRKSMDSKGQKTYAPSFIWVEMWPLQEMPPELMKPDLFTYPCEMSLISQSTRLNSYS
Experimental: For GPCR135, GPCR142, and LGR7, [^125I]-relaxin-3 was used as the radioligand at a final concentration of 100 pM. Different unlabeled peptides were used in the binding assay as the competitors. […] Different unlabeled peptides including relaxin-3 chimeras at various concentrations were added to the binding assay as the competitors. Data represent mean±SEM (n=3).
Radioligand binding assays for LGR7 and LGR8 were performed using live COS-7 cells transiently transfected with LGR7 or LGR8 expression plasmids in 15-cm culture dishes using LipofectAmine (Invitrogen). Two days after transfection, the transfected cells were detached from the 15-cm culture dished using phosphate buffered saline (PBS) plus 10 mM EDTA, seeded into 96-well opaque poly-D-lysine coated culture plates and used for radioligand binding assays. For LGR7, [^125I]-relaxin-3 was used as the tracer. […] [^125I]-labeled tracer was added in binding reactions at a final concentration of 100 pM in binding buffer containing DMEM plus 50 mM HEPES and 1% bovine serum albumin. Unlabeled relaxin-3 and relaxin-3 chimeric polypeptides were added at various concentrations to the binding assays as the competitors, as indicated (FIG. 3). The binding mixtures were incubated at room temperature for 1 hour. The unbound radioligand was removed by aspiration of the binding buffer. The cells were washed with PBS. The bound radioligand was counted in a scintillation counter (TopCount/NTX). The results were analyzed using Prism 3.0 program (Graphpad, San Diego, Calif.). The IC50 values represent the ligand concentrations that inhibit 50% of the maximum specific binding.

[3] = molecular target: T3, GPCR135 (Homo sapiens, UniProt Q9NSD7); assay: Inhibition of forskolin stimulated β-galactosidase expression in SK-N-MC/β-gal cells; type: cell-based
T3 construct: expressed in transfected cells
T3 sequence (Q9NSD7 1-469): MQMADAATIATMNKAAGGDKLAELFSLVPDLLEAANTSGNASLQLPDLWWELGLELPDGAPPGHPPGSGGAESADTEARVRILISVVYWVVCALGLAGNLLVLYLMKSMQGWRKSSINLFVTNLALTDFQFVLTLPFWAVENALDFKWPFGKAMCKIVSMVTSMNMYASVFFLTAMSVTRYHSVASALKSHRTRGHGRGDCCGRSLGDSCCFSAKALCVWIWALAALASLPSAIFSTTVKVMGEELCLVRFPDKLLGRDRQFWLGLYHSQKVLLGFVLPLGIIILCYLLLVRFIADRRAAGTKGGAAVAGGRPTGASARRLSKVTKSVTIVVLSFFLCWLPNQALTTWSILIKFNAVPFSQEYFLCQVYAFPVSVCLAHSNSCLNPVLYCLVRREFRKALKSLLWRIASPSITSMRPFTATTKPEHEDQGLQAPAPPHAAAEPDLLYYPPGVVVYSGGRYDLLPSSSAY
Experimental: (§1) Different chimeric polypeptides at various concentrations were added to SK-N-MC/β-gal cells expressing human GPCR135 (FIG. 4A) or GPCR142 (FIG. 4B) to inhibit forskolin stimulated β-galactosidase expression. […] In parallel, chimeric polypeptides at various concentrations were added to SK-N-MC/β-gal cells expressing human LGR7 (FIG. 4C) and LGR8 (FIG. 4D) to stimulate β-galactosidase expression. Relaxin-3 and INSL3 were used as positive controls for LGR7 and LGR8, respectively. Intracellular β-galactosidase activity was measured by a colorimetric assay using CRGP as the substrate and reading the absorbance at wavelength of 570 nm. Data represent mean±SEM (n=3).

[4] = molecular target: T4, GPCR142 (Homo sapiens, UniProt Q8TDU9, L329S); assay: as above; type: cell-based
T4 construct: expressed in transfected cells
Experimental: as §1

[5] = highest concentration tested 1 μM
[6] = inhibition of 5 μM forskolin stimulated β-galactosidase expression, mean ± SEM, n = 3

T1 sequence (Q8WXD0 whole entry): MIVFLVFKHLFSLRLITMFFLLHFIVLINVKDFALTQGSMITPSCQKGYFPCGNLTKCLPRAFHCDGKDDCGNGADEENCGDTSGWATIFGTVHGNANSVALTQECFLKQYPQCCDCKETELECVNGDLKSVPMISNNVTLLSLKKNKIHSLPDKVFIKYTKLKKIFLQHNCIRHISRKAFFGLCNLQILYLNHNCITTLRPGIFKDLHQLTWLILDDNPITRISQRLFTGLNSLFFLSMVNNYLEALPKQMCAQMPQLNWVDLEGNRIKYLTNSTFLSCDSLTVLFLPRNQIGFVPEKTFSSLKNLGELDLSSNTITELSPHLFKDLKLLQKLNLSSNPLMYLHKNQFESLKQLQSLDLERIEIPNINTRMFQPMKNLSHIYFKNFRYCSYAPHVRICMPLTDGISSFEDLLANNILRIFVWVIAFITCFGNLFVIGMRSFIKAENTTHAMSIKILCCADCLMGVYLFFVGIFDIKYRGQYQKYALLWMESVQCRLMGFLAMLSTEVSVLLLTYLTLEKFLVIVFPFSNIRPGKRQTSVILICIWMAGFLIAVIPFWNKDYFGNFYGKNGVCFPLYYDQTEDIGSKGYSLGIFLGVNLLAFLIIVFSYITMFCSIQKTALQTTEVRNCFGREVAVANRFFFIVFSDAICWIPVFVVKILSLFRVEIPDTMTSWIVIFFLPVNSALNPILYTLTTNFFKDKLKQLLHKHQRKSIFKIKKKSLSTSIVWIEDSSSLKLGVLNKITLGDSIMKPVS
T4 sequence (Q8TDU9 whole entry L329S): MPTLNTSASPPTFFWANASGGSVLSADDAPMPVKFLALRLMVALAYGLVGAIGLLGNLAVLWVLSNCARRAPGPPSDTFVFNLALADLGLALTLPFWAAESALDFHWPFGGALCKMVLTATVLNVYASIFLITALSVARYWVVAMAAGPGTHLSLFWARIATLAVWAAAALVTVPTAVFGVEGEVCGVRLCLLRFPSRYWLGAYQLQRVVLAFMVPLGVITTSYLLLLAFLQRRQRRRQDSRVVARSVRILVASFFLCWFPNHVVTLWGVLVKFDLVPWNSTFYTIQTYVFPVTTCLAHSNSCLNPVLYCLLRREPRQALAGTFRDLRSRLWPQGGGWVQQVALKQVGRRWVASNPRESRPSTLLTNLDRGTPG

Substance: R3/I6: chimeric polypeptide: human relaxin-3 B-chain and INSL6 A-chain; mature polypeptide SEQ ID NO:24 (RAAPYGVRLCGREFIRAVIFTCGGSRWGYSEKCCLTGCTKEELSIAC; Human Relaxin-3/Insulin-like 6 chimeric mature polypeptide)
- activation of LGR8, in words [1]: inactive
- affinity for LGR7 ([2]; discussion): 10 to 15 nM

Substance: R3/I4: chimeric polypeptide: human relaxin-3 B-chain and INSL4 A-chain; mature polypeptide SEQ ID NO:22 (RAAPYGVRLCGREFIRAVIFTCGGSRWFDPFCCEVICDDGTSVKLC; Human Relaxin-3/Insulin-like 4 chimeric mature polypeptide)
- agonist activity at GPCR135, in words [3, 5]: stimulated GPCR135 or GPCR142 at the highest concentration (1 μM) tested only
- activation of LGR8, in words [1]: no activity
- binding to LGR7, in words [2, 5]: inactive
- agonist activity at GPCR142, in words [4, 5]: stimulated GPCR135 or GPCR142 at the highest concentration (1 μM) tested only

Substance: R3/I5: chimeric polypeptide: human relaxin-3 B-chain and INSL5 A-chain; mature polypeptide SEQ ID NO:23 (RAAPYGVRLCGREFIRAVIFTCGGSRWQDLQTLCCTDGCSMTDLSALC; Human Relaxin-3/Insulin-like 5 chimeric mature polypeptide)
- EC50 to activate GPCR135 [3, 6]: low nanomolar range
- activation of LGR8, in words [1]: inactive
- EC50 to activate GPCR142 [4, 6]: low nanomolar range
